# Assay results reported in patent US20230348629A1 (BEIJING MABWORKS BIOTECH, published 2023).
# T1: human TIGIT on HEK293A/human TIGIT cells (human, UniProt Q495A1 22-244)
# T1 construct: also called cell surface human TIGIT; human TIGIT-expressing HEK293A cells
# T1 sequence: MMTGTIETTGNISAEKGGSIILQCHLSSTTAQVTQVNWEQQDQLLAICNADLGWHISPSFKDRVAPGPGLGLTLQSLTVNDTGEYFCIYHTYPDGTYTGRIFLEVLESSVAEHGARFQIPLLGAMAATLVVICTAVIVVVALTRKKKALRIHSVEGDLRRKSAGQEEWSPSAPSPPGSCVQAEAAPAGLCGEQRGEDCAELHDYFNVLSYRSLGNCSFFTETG
# T2: human TIGIT-his protein (Cat #:10917-H08H, Sino Biological) (human, UniProt Q495A1 22-141)
# T2 construct: Bought soluble protein; also called TIGIT molecules; not shown: his tag
# T2 sequence: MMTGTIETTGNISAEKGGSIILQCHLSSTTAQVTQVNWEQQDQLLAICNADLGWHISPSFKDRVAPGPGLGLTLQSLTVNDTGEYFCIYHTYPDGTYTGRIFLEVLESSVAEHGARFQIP
# T3: human VEGF-C-his molecules (Cat #:VEC-H4225, Acrobiosystems) (human, UniProt P49767 103-227, limits assumed)
# T3 construct: Bought protein; not shown: his tag
# T3 sequence (looked up): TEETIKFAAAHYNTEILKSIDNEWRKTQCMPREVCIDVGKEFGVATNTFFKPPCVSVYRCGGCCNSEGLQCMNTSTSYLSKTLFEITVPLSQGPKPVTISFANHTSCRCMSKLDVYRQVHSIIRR
# T4: TIGIT-mFc molecules (Cat #: 10917-H38H, Sino Biological) (UniProt Q495A1 22-141)
# T4 construct: not shown: mFc (mouse Fc)
# T4 sequence (looked up): T2 sequence
# B1: MBS310-6 (bispecific antibody, human IgG1, kappa)
# heavy 1: not shown
# heavy 2: not shown
# light 1: not shown
# light 2: EIVLTQSPGTLSLSPGERATMTCRASSSISSTYLHWYQQKPGASPKLLIYNTQNLASGVPARFSGSGSGTSYTLTISRLEPEDFAVYYCQQFGGYPLITFGAGTKLELKRTVAAPSVFIFPPSDEQLKSGTASVVCLLNNFYPREAKVQWKVDNALQSGNSQESVTEQDSKDSTYSLSSTLTLSKADYEKHKVYACEVTHQGLSSPVTKSFNRGEC
# notes: two half antibodies (knob and hole) expressed in HEK-293F cells and assembled in vitro; also called asymmetrical anti-VEGF/TIGIT bispecific antibody; anti-TIGIT/VEGF bispecific antibody
# B2: MBS310-4 (bispecific antibody, human IgG1, kappa)
# heavy: not shown
# light: B1 light 2
# notes: also called symmetrical anti-VEGF/TIGIT bispecific antibody
# B3: bevacizumab (antibody, V domains shown)
# VH: EVQLVESGGGLVQPGGSLRLSCAASGYTFTNYGMNWVRQAPGKGLEWVGWINTYTGEPTYAADFKRRFTFSLDTSKSTAYLQMNSLRAEDTAVYYCAKYPHYYGSSHWYFDVWGQGTLVTVSS
# VL: DIQMTQSPSSLSASVGDRVTITCSASQDISNYLNWYQQKPGKAPKVLIYFTSSLHSGVPSRFSGSGSGTDFTLTISSLQPEDFATYYCQQYSTVPWTFGQGTKVEIKR
# notes: also called Avastin bevacizumab
# B4: 70E11VH2VL4 (antibody, human IgG1, kappa, V domains shown)
# VH: QVQLVQSGAEVKKPGASVKVSCKASGYTFTSYNVHWVRQAPGQGLEWMGTIYPGNLATSYNQKFKGRVTLTADTSTSTVYMELSSLRSEDTAVYYCARSGTMDYWGQGTTVTVSS
# VL: EIVLTQSPGTLSLSPGERATMTCRASSSISSTYLHWYQQKPGASPKLLIYNTQNLASGVPARFSGSGSGTSYTLTISRLEPEDFAVYYCQQFGGYPLITFGAGTKLELKR
# notes: Humanized anti-TIGIT antibody, human IgG1 and kappa constant regions; also called anti-TIGIT antibody 70E11VH2VL4; monospecific anti-TIGIT antibody
# Key:
# [1] = molecular target: T1, human TIGIT on HEK293A/human TIGIT cells; assay: FACS on HEK293A/human TIGIT cells, antibody titrated in the presence of 50 ng/ml free human VEGF-A
# Method: (§1) Briefly, 10⁵ HEK293A cells in 100 μl cell culture medium were seeded onto a 96-well plate, which was later added with 50 μl serially diluted bispecific antibodies of the disclosure and 50 μl free human VEGF-A molecules at the final concentration of 0 ng/ml, 50 ng/ml or 50 μg/ml (Cat #:11066-HNAN, Sino Biological, CN). After incubation at 4° C. for 1 h, the plate was washed with PBS for three times, and added with APC-goat-anti-mouse IgG (1:500, Cat #: 405308, BioLegend, USA). After incubation at 4° C. for 1 h, the plate was washed with PBS for three times, and measured for fluorescence using a cytometry (BD).
# [2] = molecular target: T2, human TIGIT-his protein (Cat …); assay: SPR (BIAcore 8K), human TIGIT-his coupled to the chip, antibody injected
# Source text: (§2) Using BIAcore™ 8K instrument (GE Life Sciences, US), the binding affinity of the bispecific molecules of the disclosure to human TIGIT and VEGF was quantitatively measured. Briefly, 100-200 response units (RU) of human TIGIT-his protein (Cat #:10917-H08H, Sino Biological, CN) or human VEGF-A (Cat #:11066-HNAN, Sino Biological, CN) were coupled to CMS biosensor chips (Cat #:BR-1005-30, GE Life Sciences, US). The un-reacted groups were then blocked with 1M ethanolamine Serially diluted antibodies at concentrations ranging from 0.3 μM to 10 μM were injected into the SPR running buffer (HBS-EP buffer, pH7.4, Cat #:BR-1006-69, GE Life Sciences, US) at 30 μL/min. The binding affinity was calculated with the RUs of blank controls subtracted, and the association rate (kₐ) and dissociation rate (kd) were determined using the one-to-one Langmuir binding model (BIA Evaluation Software, GE Life Sciences, US). The equilibrium dissociation constant KD was calculated as the kd/kₐ ratio.
# [3] = molecular target: T1, human TIGIT on HEK293A/human TIGIT cells; assay: FACS on HEK293A/human TIGIT cells, antibody titrated, MFI
# Method: (§3) Briefly, 10⁵ HEK293A cells in 100 μl cell culture medium were seeded onto a 96-well plate, which was later added with 50 μl serially diluted bispecific antibodies of the disclosure. After incubation at 4° C. for 1 h, the plate was washed with PBS for three times, added with APC-goat-anti-mouse IgG (1:500, Cat #: 405308, BioLegend, USA). After incubation at 4° C. for 1 h, the plate was washed with PBS for three times, and measured for fluorescence using a cytometry (BD).
# [4] = molecular target: T1, human TIGIT on HEK293A/human TIGIT cells; assay: cell-based or functional assay
# [5] = molecular target: T1, human TIGIT on HEK293A/human TIGIT cells; assay: FACS on HEK293A/human TIGIT cells, antibody titrated, no free VEGF-A
# Method: as §1
# [6] = molecular target: T5, monkey TIGIT on HEK293A/monkey TIGIT cells (monkey); assay: FACS on HEK293A/monkey TIGIT cells, antibody titrated, MFI
# T5 construct: also called cell surface monkey TIGIT
# T5 sequence (chain, as listed by the source limits assumed): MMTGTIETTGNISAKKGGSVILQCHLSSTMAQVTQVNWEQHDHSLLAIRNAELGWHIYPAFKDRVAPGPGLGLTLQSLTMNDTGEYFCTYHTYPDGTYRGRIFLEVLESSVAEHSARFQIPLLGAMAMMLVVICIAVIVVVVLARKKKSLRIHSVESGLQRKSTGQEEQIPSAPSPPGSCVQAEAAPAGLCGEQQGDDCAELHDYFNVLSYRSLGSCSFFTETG
# Method: as §3
# [7] = molecular target: T3, human VEGF-C-his molecules (Cat …); assay: ELISA, plate coated with human VEGF-C-his, antibody titrated (axis labelled MFI)
# Method: (§4) Briefly, an ELISA plate was coated with 100 μl 500 ng/ml human VEGF-A molecules (Cat #:11066-HNAN, Sino Biological, CN), mouse VEGF-A molecules (Cat #:50159-MNAB, Sino Biological, CN), human VEGF-B-his molecules (Cat #:VE6-H5225, Acrobiosystems Co., CN) and human VEGF-C-his molecules (Cat #:VEC-H4225, Acrobiosystems Co., CN) respectively overnight at 4° C. […] The ELISA plate was added with freshly prepared Ultra-TMB (Cat #:555214, BD, USA), and left still for 5 min for color development. The absorbance was read at 450 nm using SpectraMax® i3X microplate reader.
# [8] = molecular target: T1, human TIGIT on HEK293A/human TIGIT cells; assay: FACS on HEK293A/human TIGIT cells, antibody titrated, no free VEGF-A; remark: listed apart in the source
# Method: as §1
# [9] = molecular target: T6, human VEGF-A molecules (Cat #:11066-HNAN, Sino Biological) (human, UniProt P15692-4 27-191); assay: SPR (BIAcore 8K), human VEGF-A coupled to the chip, antibody injected
# T6 construct: Bought protein; also called human/monkey VEGF; VEGF molecules
# T6 sequence (P15692 other isoform, or with tags, fused parts or gaps limits assumed): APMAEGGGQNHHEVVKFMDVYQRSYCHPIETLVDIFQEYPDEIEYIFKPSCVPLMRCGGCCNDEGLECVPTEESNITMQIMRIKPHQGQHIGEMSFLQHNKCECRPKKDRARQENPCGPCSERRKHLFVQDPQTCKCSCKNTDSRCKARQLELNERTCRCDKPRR
# Source text: as §2
# [10] = molecular target: T4, TIGIT-mFc molecules (Cat #: 10917-H38H, …); assay: FACS blocking assay: antibody titrated and premixed with 5 ug/ml TIGIT-mFc, binding of TIGIT-mFc to human PVR on A549/human PVR cells
# Method: After incubation at 4° C. for 1 h, the plate was washed with PBS for three times, and then added with PE-goat-anti-mouse IgG (1:500, Cat #:31861, Thermofisher, USA). After incubation at 4° C. for 1 h, the plate was washed with PBS for three times, and measured for fluorescence using a cytometry (BD).
# [11] = molecular target: T1, human TIGIT on HEK293A/human TIGIT cells; assay: FACS on HEK293A/human TIGIT cells, antibody titrated in the presence of 50 ug/ml free human VEGF-A
# Method: as §1
# [12] = molecular target: T6, human VEGF-A molecules (Cat …); assay: ELISA, plate coated with human VEGF-A, antibody titrated, OD450
# Method: as §4
binder,measurement,setting,value
B1,EC50 (read off the curve),[1],~1 nM
same,Kd,[2],12.8 nM
same,EC50 (read off the curve),[3],~0.8 nM
same,"EC50, NK92 (NK92MI-CD16a) cell-mediated ADCC, LDH release",[4],0.268 nM
same,"EC50, PBMC-mediated ADCC, death rate of GFP+ cells by FACS",[4],0.183 nM
same,EC50 (read off the curve),[5],~1 nM
same,EC50 (read off the curve),[6],~1 nM
same,binding result,[7],no binding (tested: about 100 nM (LOG.Con about 2))
same,EC50 (read off the curve),[8],~0.9 nM
same,Kd,[9],0.166 nM
same,IC50 (read off the curve),[10],~4 nM
same,EC50 (read off the curve),[11],~0.8 nM
same,EC50 (read off the curve),[12],~0.6 nM
B2,binding result,[12],binds
B3,binding result,[7],no binding (tested: about 100 nM (LOG.Con about 2))
B4,Kd,[2],8.05 nM
same,EC50 (read off the curve),[3],~0.4 nM
same,"EC50, NK92 (NK92MI-CD16a) cell-mediated ADCC, LDH release",[4],0.142 nM
same,"EC50, PBMC-mediated ADCC, death rate of GFP+ cells by FACS",[4],0.162 nM
same,EC50 (read off the curve),[6],~0.2 nM
same,IC50 (read off the curve),[10],~2 nM
